Measured values reported in article doi:10.1101/2023.05.10.540157 (bioRxiv, 2023).
Like-named read-outs stand apart in the source and are kept apart here.

Columns and labels:
[1] = biological target: T1, mineralocorticoid receptor (MR), NanoBiT fusion LgBiT-MR (UniProt P08235 1-984); test: split reporter
T1 sequence: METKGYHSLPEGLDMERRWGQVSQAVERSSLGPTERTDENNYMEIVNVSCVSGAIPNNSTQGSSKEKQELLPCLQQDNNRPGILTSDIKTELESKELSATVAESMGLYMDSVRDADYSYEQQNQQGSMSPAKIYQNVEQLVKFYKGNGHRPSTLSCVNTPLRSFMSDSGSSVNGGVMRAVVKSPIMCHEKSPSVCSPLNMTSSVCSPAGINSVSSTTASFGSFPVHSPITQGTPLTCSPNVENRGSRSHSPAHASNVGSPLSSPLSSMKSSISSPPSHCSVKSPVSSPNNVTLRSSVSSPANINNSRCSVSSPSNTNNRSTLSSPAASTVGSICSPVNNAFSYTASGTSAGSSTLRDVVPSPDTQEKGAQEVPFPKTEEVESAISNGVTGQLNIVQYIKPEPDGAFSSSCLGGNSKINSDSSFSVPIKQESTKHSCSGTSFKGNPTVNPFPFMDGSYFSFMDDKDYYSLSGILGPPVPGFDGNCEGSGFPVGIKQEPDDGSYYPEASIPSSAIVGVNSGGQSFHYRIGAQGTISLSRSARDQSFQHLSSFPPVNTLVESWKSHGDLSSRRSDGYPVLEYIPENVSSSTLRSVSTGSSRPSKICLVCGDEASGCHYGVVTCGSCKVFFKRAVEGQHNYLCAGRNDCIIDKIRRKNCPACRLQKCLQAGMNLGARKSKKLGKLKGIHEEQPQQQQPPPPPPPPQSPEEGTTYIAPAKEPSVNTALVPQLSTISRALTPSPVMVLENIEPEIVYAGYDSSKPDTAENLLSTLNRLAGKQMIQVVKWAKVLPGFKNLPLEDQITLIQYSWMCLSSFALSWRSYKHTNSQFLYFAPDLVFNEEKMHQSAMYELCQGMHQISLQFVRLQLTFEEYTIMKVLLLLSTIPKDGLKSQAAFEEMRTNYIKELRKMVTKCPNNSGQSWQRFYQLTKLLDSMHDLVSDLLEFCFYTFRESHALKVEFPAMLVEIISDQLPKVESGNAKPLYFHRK

[2] = biological target: T1, mineralocorticoid receptor (MR), …; test: split reporter; remark: listed apart in the source

B1: glucocorticoid receptor (GR), NanoBiT fusion GR-SmBiT (receptor)
chain: MDSKESLTPGREENPSSVLAQERGDVMDFYKTLRGGATVKVSASSPSLAVASQSDSKQRRLLVDFPKGSVSNAQQPDLSKAVSLSMGLYMGETETKVMGNDLGFPQQGQISLSSGETDLKLLEESIANLNRSTSVPENPKSSASTAVSAAPTEKEFPKTHSDVSSEQQHLKGQTGTNGGNVKLYTTDQSTFDILQDLEFSSGSPGKETNESPWRSDLLIDENCLLSPLAGEDDSFLLEGNSNEDCKPLILPDTKPKIKDNGDLVLSSPSNVTLPQVKTEKEDFIELCTPGVIKQEKLGTVYCQASFPGANIIGNKMSAISVHGVSTSGGQMYHYDMNTASLSQQQDQKPIFNVIPPIPVGSENWNRCQGSGDDNLTSLGTLNFPGRTVFSNGYSSPSMRPDVSSPPSSSSTATTGPPPKLCLVCSDEASGCHYGVLTCGSCKVFFKRAVEGQHNYLCAGRNDCIIDKIRRKNCPACRYRKCLQAGMNLEARKTKKKIKGIQQATTGVSQETSENPGNKTIVPATLPQLTPTLVSLLEVIEPEVLYAGYDSSVPDSTWRIMTTLNMLGGRQVIAAVKWAKAIPGFRNLHLDDQMTLLQYSWMFLMAFALGWRSYRQSSANLLCFAPDLIINEQRMTLPCMYDQCKHMLYVSSELHRLQVSYEEYLCMKTLLLLSSVPKDGLKSQELFDEIRMTYIKELGKAIVKREGNSSQNWQRFYQLTKLLDSMHEVVENLLNYCFQTFLDKTMSIEFPEMLAEIITNQIPKYSNGNIKKLLFHQK
fold induction of NanoBiT luminescence versus solvent [1]: ~8 fold | fold induction of NanoBiT luminescence versus solvent [2]: ~6 fold
